Experimental findings from patent publication US20120207760A1 are described below.

Holding throughout (details): remark: other sources report otherwise
For assay [1], the target named is T1, recombinant homotrimeric HA, A/Solomon Islands/3/06 H1N1 (Influenza A virus A/Solomon Islands/3/06 (H1N1)). The experiment in a line: trimeric HA microarray, transfection set 3.
Assay [2] deals with recombinant homotrimeric HA, A/Hong Kong/1073/99 H9N2 (Influenza A virus A/Hong Kong/1073/99 (H9N2)). The experiment in a line: trimeric HA microarray, transfection set 3.
Assay [3] addresses recombinant homotrimeric HA, A/Netherlands/219/03 H7N7 (Influenza A virus A/Netherlands/219/03 (H7N7)). The experiment in a line: trimeric HA microarray, transfection set 3.
Assay [4] deals with recombinant homotrimeric HA, A/swine/Ontario/01911-2/99 H4N6 (Influenza A virus A/swine/Ontario/01911-2/99 (H4N6)). In words: trimeric HA microarray, transfection set 3.
Assay [5] addresses recombinant homotrimeric HA, A/northern shoveler/California/HKWF115/07 (Influenza A virus A/northern shoveler/California/HKWF115/2007 (H6N1)). The experiment in a line: trimeric HA microarray, transfection set 3.
Assay [6] concerns the target recombinant homotrimeric HA, A/chicken/Vietnam/NCVD-016/08 H5N1 (Influenza A virus A/chicken/Vietnam/NCVD-016/08 (H5N1)). The experiment in a line: trimeric HA microarray, transfection set 3.
Assay [7] concerns the target T2, recombinant homotrimeric HA, A/Japan/305/57 H2N2 (Influenza A virus A/Japan/305/57 (H2N2)). The experiment in a line: trimeric HA microarray, transfection set 3.
The target in assay [8] is T3, recombinant homotrimeric HA, A/Wisconsin/67/05 H3N2 (Influenza A virus A/Wisconsin/67/05 (H3N2)). The experiment in a line: trimeric HA microarray, transfection set 3.
For assay [9], the target named is recombinant homotrimeric HA, A/South Carolina/1/18 H1N1 (Influenza A virus A/South Carolina/1/18 (H1N1)). The experiment in a line: trimeric HA microarray, transfection set 3.
Assay [10] concerns the target recombinant homotrimeric HA, A/common magpie/Hong Kong/5052/07 H5N1 (Influenza A virus A/common magpie/Hong Kong/5052/07 (H5N1)). The experiment in a line: trimeric HA microarray, transfection set 3.
Assay [11] deals with recombinant homotrimeric HA, A/Hong Kong/2108/03 H9N2 (Influenza A virus A/Hong Kong/2108/03 (H9N2)). In words: trimeric HA microarray, transfection set 3.
Assay [12] concerns the target recombinant homotrimeric HA, A/Indonesia/5/05 H5N1 (Influenza A virus A/Indonesia/5/05 (H5N1)). In words: trimeric HA microarray, transfection set 3.
The target of assay [13] is recombinant homotrimeric HA, A/Vietnam/1203/04 H5N1 (Influenza A virus A/Vietnam/1203/04 (H5N1)). The experiment in a line: trimeric HA microarray, transfection set 3.
Assay [14] has as its target recombinant homotrimeric HA, A/Egypt/3300-NAMRU3/08 H5N1 (Influenza A virus A/Egypt/3300-NAMRU3/08 (H5N1)). The experiment in a line: trimeric HA microarray, transfection set 3.
Assay [15] deals with T4, recombinant homotrimeric HA, A/California/4/09 H1N1 (Influenza A virus A/California/4/09 (H1N1)). The experiment in a line: trimeric HA microarray, transfection set 3.
The target of assay [16] is recombinant soluble homotrimeric HA of A/northern shoveler/California/HKWF115/07 (Influenza A virus A/northern shoveler/California/HKWF115/2007). In words: microarray, BCC supernatant IgG, trimeric HA.
For assay [17], the target named is recombinant soluble homotrimeric HA of A/California/4/09 (H1N1) (Influenza A virus A/California/4/09 (H1N1)). The experiment in a line: microarray, BCC supernatant IgG, trimeric HA.
For assay [18], the target named is recombinant soluble homotrimeric HA of A/chicken/Vietnam/NCVD-016/08 (H5N1) (Influenza A virus A/chicken/Vietnam/NCVD-016/08 (H5N1)). The experiment in a line: microarray, BCC supernatant IgG, trimeric HA.
In assay [19] the target is T1, recombinant homotrimeric HA, A/Solomon …. In words: trimeric HA microarray, transfection set 5.
Assay [20] has as its target T2, recombinant homotrimeric HA, …. In words: trimeric HA microarray, transfection set 5.
For assay [21], the target named is T3, recombinant homotrimeric HA, …. In words: trimeric HA microarray, transfection set 5.
Assay [22] addresses T4, recombinant homotrimeric HA, …. The experiment in a line: trimeric HA microarray, transfection set 5.

B1: TCN-532 (5262_H18) (antibody, V domains shown)
VH: QVQLQESGPGLVKPSETLSLTCTVSGGSVSSETYYWSWIRQPPGKGLEWIGYIYYIGNTDYRPSLKSRVTISLDTSKNQFSLKLSSVTAADTAVYYCARGAYYDSSGYPAFYIWGQGTMVTVSS
VL: QSVLTQPPSVSGAPGQRVTISCTGSSSNIGSDYDVHWYKQLPGTAPKLLIFGNSNRPSGVPDRFSGSKSGTSASLAITGLQAEDEADYYCQSYDSSLSGFHVFGSGTKVTVL
Turning to B1, the Trimeric HA Binding RLU in assay [1] turned out to be 59 RLU; in assay [2], 48 RLU; in assay [3], 42 RLU; in assay [4], 29 RLU; in assay [5], 78 RLU; in assay [6], 29 RLU. Also, the Trimeric HA Binding RLU stood at 441 RLU in assay [7], 9970 RLU in assay [8] and 311 RLU in assay [9].

B2: TCN-530 (5248_H10a) (antibody, V domains shown)
VH: QVQLVQSGAEVRKPGSSVKVSCKASGGPFMSYAIGWVRQAPGQGLEWMGGINPVFGRPHYAQKFQGRVTIATDDSTKTSYMELSSLTSEDTGMYYCASRYSRSSPGTFESWGQGTLVTVSS
VL: EIVMTQFPATLSVSPGERVTLSCRASQSVSNNLAWYQQKPGQPPRLLIYDASTRATGVPAKFSGTGSGTEFTLSISSLQSEDFAVYYCQQYHNWPPSYSFGLGTKLEIK
With B2, the Trimeric HA Binding RLU in assay [1] amounted to 13800 RLU; in [2], 10200 RLU; in [10], 5580 RLU; in assay [11], 44 RLU; in assay [4], 123 RLU; in assay [12] it was 25500 RLU. For the same molecule, the Trimeric HA Binding RLU in assay [5] was 23500 RLU; in assay [13] it was 25200 RLU; in [6], 18000 RLU; in assay [7], 5170 RLU; in assay [8], 3050 RLU; in assay [14] it was 25500 RLU. Also, the Trimeric HA Binding RLU in assay [9] came out at 17200 RLU; in [15] it was 21200 RLU.

B3: TCN-547 (5092_F11) (antibody, V domains shown)
VH: QVQLQESGPGLVKPSQTLSLTCTVSGDSISSVDHYWSWIRQHPVKGLEWIGFMYYSASTYYNPSLKSRVTISTDTSKNQFSLRLSSVTAADTAVYYCARGTCAGDCSLHYYYYGLDVWGQGRTVTVSS
VL: DIQMTQSPSSLSASVGDRVTITCRASQSISSYLNWYQHKPGKAPKVLMYAVSILQSGVPSRFSGSGSGADFTLTISSLQPEDFATYYCQQSYSSPLTFGGGTKVEIK
With B3, the Trimeric HA Binding: RLU came out at 1000 RLU in assay [16], 170 RLU in assay [17] and 198 RLU in [18]. Also, the Trimeric HA Binding RLU in assay [19] came out at 1080 RLU; in assay [20] it was 1350 RLU; in assay [21], 6970 RLU; in [22] it was 1470 RLU.
